Target: TlLhpI (OCD-like protein / Δ1-pyrroline-2-carboxylate reductase from Thermococcus litoralis DSM 5473) (Thermococcus litoralis DSM 5473)
Assay: SEC

Question: How did the stoichiometry N turn out when “TlLhpI (OCD-like protein / Δ1-pyrroline-2-carboxylate reductase from Thermococcus litoralis DSM 5473) (enzyme)” was run?
Answer: 2

Reference: publication PMC4141209
